In article PMC10856354 (International Journal of Molecular Sciences, 2024):
Where “and” joins values, the source holds several entries; their conditions need not be identical. Equal values may be shown once. Where a SMILES comes first, the peptide text is derived from it. Bridges are numbered along the chain shown (N, C = ends). [ ]: non-standard residue; d: D form. The star is where a group is joined. DOTA = O=C(O)CN1CCN(CC(=O)O)CCN(CC(=O)*)CCN(CC(=O)O)CC1

Legend:
hSST1R = molecular target: T1, hSST1R (Homo sapiens, UniProt P30872); test: Receptor autoradiography competition binding vs [125I]I-[LTT]SS28
T1 construct: expressed in transfected cells; host or cells: CHO cells, gift of Drs; T. Reisine and G. Singh
T1 sequence (P30872 whole entry): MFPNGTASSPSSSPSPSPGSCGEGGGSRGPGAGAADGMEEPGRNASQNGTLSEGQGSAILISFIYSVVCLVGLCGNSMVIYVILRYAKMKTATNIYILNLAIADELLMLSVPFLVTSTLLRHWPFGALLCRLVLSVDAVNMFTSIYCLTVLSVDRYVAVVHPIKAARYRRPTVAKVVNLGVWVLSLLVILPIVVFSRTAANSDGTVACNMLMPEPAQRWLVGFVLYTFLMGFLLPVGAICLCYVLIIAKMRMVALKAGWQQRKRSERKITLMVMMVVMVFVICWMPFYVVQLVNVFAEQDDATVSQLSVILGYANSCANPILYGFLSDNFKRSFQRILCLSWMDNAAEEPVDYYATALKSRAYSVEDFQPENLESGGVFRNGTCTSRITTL
Experimental: (§1) Cell membrane pellets were prepared from CHO-hSST1R cells, CCL39-hSST2R, CCL39-hSST3R, and CCL39-hSST4R cells, and HEK293-hSST2R cells and stored at −80 °C. Receptor autoradiography was performed on 20-μm-thick cryostat (Microm HM 500, Walldorf, Germany) sections of the membrane pellets mounted on microscope slides, and then stored at −20 °C, as previously described. […] The incubated sections were washed twice for 5 min in cold 170 mmol/L Tris-HCl (pH 8.2) containing 0.25% BSA. After a brief dip in 170 mmol/L Tris-HCl (pH 8.2), the sections were dried quickly and exposed for 1 week to Kodak BioMax MR film (Rochester, NY, USA). IC50 values were calculated after quantification of the data using a computer-assisted image processing system as described previously. Tissue standards (Autoradiographic [^125I] and/or [^14C] microscales, GE Healthcare; Little Chalfont, UK) that contain known amounts of isotope, cross-calibrated to tissue-equivalent ligand concentrations, were used for quantification.

hSST2R [1] = molecular target: T2, hSST2R (Homo sapiens, UniProt P30874); test: as above
T2 construct: expressed in transfected cells
T2 sequence (P30874 whole entry): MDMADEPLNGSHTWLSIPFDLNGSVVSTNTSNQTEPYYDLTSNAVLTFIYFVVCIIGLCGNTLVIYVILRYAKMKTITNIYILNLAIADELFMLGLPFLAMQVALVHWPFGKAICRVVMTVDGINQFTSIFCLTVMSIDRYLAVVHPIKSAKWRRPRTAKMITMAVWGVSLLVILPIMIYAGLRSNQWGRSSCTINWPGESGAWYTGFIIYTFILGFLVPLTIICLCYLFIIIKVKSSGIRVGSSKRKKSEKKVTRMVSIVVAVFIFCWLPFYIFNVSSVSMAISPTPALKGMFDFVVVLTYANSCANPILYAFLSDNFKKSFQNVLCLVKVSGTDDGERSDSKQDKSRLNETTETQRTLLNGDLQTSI
Experimental: as §1

hSST3R = molecular target: T3, hSST3R (Homo sapiens, UniProt P32745); test: as above
T3 construct: expressed in transfected cells; host or cells: CCL39 cells, gift of Dr. D. Hoyer (Novartis Pharma)
T3 sequence (P32745 whole entry): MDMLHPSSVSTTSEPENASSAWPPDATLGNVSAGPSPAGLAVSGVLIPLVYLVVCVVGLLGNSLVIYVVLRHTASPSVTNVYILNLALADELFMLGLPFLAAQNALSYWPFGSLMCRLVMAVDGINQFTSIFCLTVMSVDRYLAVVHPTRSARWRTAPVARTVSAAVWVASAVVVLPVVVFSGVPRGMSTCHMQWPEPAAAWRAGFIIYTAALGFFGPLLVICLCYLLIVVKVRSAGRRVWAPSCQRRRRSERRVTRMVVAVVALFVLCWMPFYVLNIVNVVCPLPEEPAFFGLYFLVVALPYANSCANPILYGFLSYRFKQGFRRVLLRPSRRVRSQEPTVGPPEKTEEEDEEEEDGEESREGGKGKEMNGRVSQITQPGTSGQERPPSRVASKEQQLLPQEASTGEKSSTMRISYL
Experimental: as §1

hSST5R = molecular target: T4, hSST5R (Homo sapiens, UniProt P35346); test: as above
T4 construct: expressed in transfected cells
T4 sequence (P35346 whole entry): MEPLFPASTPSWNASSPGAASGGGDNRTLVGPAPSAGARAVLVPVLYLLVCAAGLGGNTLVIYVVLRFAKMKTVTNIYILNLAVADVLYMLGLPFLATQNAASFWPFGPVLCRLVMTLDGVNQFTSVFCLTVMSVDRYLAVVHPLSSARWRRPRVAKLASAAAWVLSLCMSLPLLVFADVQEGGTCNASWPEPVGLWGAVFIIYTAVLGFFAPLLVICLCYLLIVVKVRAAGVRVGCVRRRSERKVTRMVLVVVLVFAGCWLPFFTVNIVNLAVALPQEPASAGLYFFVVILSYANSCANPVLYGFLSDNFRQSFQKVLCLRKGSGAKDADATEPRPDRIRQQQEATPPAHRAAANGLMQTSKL

hSST2R [2] = molecular target: T2, hSST2R; test: Immunofluorescence microscopy-based internalization assay in HEK293-hSST2R cells; type: cell-based; conditions: for ligand-induced hSST2R internalization (agonism): 30 min at 37 °C
Experimental: Figure 3 Agonist stimulated hSST2R-internalization in HEK293-hSST2R cells determined by immunofluorescence microscopy.
An immunofluorescence microscopy-based internalization assay for hSST2R was performed in HEK293-hSST2R cells, grown on poly-DLys (20 μg/mL) (Sigma-Aldrich, St. Louis, MO, USA) coated 35-mm four-well plates (Cellstar, Greiner Bio-One GmbH, Frickenhausen, Germany). […] HEK293-hSST2R cells treated with vehicle alone were used as a negative control. The cells were then rinsed twice with PS (100 mM phosphate buffer containing 0.15 M sucrose), fixed and permeabilized for 7 min with cold methanol (−20 °C), rinsed twice with PS, and then blocked for 60 min at room temperature with PS containing 0.1% BSA. Next, cells were incubated for 60 min at room temperature with the hSST2R-specific primary antibody R2-88 (provided by Dr. A. Schönbrunn, Houston, TX, USA) diluted 1:1000 in PS and washed 3 × 5 min with PS containing 0.1% BSA. The cells were incubated for 60 min at room temperature in the dark with the secondary antibody Alexa Fluor 488 goat anti-rabbit IgG (H+ L) (Molecular Probes, Inc., Eugene, OR, USA) diluted in PS (1:600), washed 3 × 5 min with PS containing 0.1% BSA, embedded with PS/glycerol 1:1, and covered with a glass cover slip. The cells were imaged using a Leica DM RB immunofluorescence microscope (Leica, Deerfield, IL, USA) and an Olympus DP10 camera (Olympus Corporation, Shinjuku, Tokyo, Japan).

[3] = mice, blood collected 5 min pi, radio-HPLC
Experimental: At 5 min pi blood (~1mL) was collected from the heart of mice in a prechilled insulin syringe and swiftly placed in an ice-cold polypropylene tube containing EDTA on ice. Blood samples were centrifuged at 2000× g at 4 °C for 10 min. […] The mixture was centrifuged for 10 min at 15,000× g at 4 °C. […] An RP18 Symmetry Shield cartridge column (5 μm, 3.9 mm × 20 mm, Waters, Vienna, Austria) was eluted at a 1 mL/min flow rate with the following gradient: 100%A/0%B to 60%A/40%B in 40 min, whereby A = 0.1% aqueous TFA and B = MeCN (system 3).

in vivo [4] = conditions: male, SCID, mouse, iv, total radioactivity
Experimental: (§2) For biodistribution experiments, male SCID mice of 7 weeks of age (15–20 g) on arrival day (NCSR ‘‘Demokritos’’ Animal House, Athens, Greece) were subcutaneously injected in their flanks with a suspension of AR4-2J cells (150 μL inocula of ~1 × 10^7 cells in PBS). The animals were kept under aseptic conditions for 12 days until well-palpable tumors were grown at the inoculation site. […] In an additional group, animals were co-injected with excess TATE (100 nmol) together with the radioligand (blocked animals) and were sacrificed at 4 h pi. Blood was immediately collected, and the organs of interest were excised and weighed. Sample radioactivity was measured in the γ-counter using proper standards of the injected activity. Data were calculated as %IA/g with the aid of standard solutions and represent mean values ± sd. For comparisons, a Two-way ANOVA with Tukey’s post hoc analysis was applied (PRISM^TM GraphPad—6 Software, San Diego, CA, USA). p values < 0.05 were considered statistically significant.

[5] = test system: AR4-2J tumor-bearing SCID mice (rSST2R-positive); test: in vivo; conditions: AR4-2J mice, 4 h pi, block: co-injection of 100 nmol TATE; mean ± sd, n = 4
Experimental: as §2

in vivo [6] = conditions: male, SCID, mouse, iv, total radioactivity; remark: listed apart in the source
Experimental: (§3) For the second biodistribution experiments, male SCID mice of 7 weeks of age (15–20 g) on arrival day (NCSR ‘‘Demokritos’’ Animal House, Athens, Greece) were subcutaneously injected in their flanks with a suspension of HEK293-hSST3R cells (150 μL inocula of ~3 × 10^7 cells in PBS). The animals were kept under aseptic conditions for 3–4 weeks until well-palpable tumors were grown at the inoculation site. […] Mice were sacrificed at 4 h pi, and biodistribution analyses were conducted, as described above.

[7] = test system: HEK293-hSST3R tumor-bearing SCID mice; test: in vivo; conditions: HEK293-hSST3R mice, 4 h pi, block: co-injection of 80 nmol KE108; mean ± sd, n = 4
Experimental: as §3

[8] = AR4-2J tumor, 10 pmol total peptide
[9] = pancreas, 10 pmol total peptide

Structure (SMILES): C[C@H](NC(=O)CN1CCN(CC(=O)O)CCN(CC(=O)O)CCN(CC(=O)O)CC1)C(=O)NCC(=O)N[C@H]1CSSC[C@@H](C(=O)O)NC(=O)[C@H](CO)NC(=O)[C@H]([C@@H](C)O)NC(=O)[C@@H]2CSSC[C@H](NC(=O)[C@H](CC(N)=O)NC(=O)[C@H](CCCCN)NC1=O)C(=O)N[C@@H](Cc1ccccc1)C(=O)N[C@H](Cc1c[nH]c3ccccc13)C(=O)N[C@@H](CCCCN)C(=O)N[C@@H]([C@@H](C)O)C(=O)N2 [AT5S, DOTA-Ala^1-Gly^2-c[Cys^3-Lys^4-Asn^5-c[Cys^6-Phe^7-DTrp^8-Lys^9-Thr^10-Cys^11]-Thr^12-Ser^13-Cys^14]] ({DOTA}-AGCKNCF[dW]KTCTSC-OH; disulfide 3-14, 6-11)
- IC50 (hSST1R): > 1000 nM
- IC50 (hSST2R [1]): 616 ± 148 nM
- IC50 (hSST3R): > 1000 nM
- IC50 (hSST5R): > 1000 nM
- ligand-induced hSST2R internalization (agonism) (hSST2R [2]; 1 µM): failed to trigger the hSST2R internalization
- prevention of SS14-induced hSST2R internalization (antagonism) (hSST2R [2]; 10 µM test peptide + 10 nM SS14, 30 min at 37 °C): failed to prevent the hSST2R internalization
- ligand-induced hSST2R internalization (agonism) (hSST2R [2]; 10 µM): failed to trigger the hSST2R internalization

Structure (SMILES): C[C@H](NC(=O)CN1CCN(CC(=O)O)CCN(CC(=O)O)CCN(CC(=O)O)CC1)C(=O)NCC(=O)N[C@H]1CSSC[C@@H](C(=O)O)NC(=O)[C@H](CO)NC(=O)[C@H]([C@@H](C)O)NC(=O)[C@@H]2CSSC[C@H](NC(=O)[C@H](CC(N)=O)NC(=O)[C@H](CCCCN)NC1=O)C(=O)N[C@@H](Cc1ccccc1)C(=O)N[C@H](Cc1c[nH]c3ccccc13)C(=O)N[C@@H](CCCCN)C(=O)N[C@@H]([C@@H](C)O)C(=O)N2 [[^111In]In-AT5S, metal not drawn] ({DOTA}-AGCKNCF[dW]KTCTSC-OH; disulfide 3-14, 6-11)
- % intact radioligand in peripheral blood [3]: > 96%

Structure (SMILES): C[C@H](NC(=O)CN1CCN(CC(=O)O)CCN(CC(=O)O)CCN(CC(=O)O)CC1)C(=O)NCC(=O)N[C@H]1CSSC[C@@H](C(=O)O)NC(=O)[C@H](CO)NC(=O)[C@@H]2CSSC[C@H](NC(=O)[C@H](CCCCN)NC1=O)C(=O)N[C@@H](Cc1ccccc1)C(=O)N[C@@H](Cc1ccccc1)C(=O)N[C@H](Cc1c[nH]c3ccccc13)C(=O)N[C@@H](CCCCN)C(=O)N[C@@H]([C@@H](C)O)C(=O)N[C@@H](Cc1ccccc1)C(=O)N2 [[^111In]In-AT6S, metal not drawn] ({DOTA}-AGCKCFF[dW]KTFCSC-OH; disulfide 3-14, 5-12)
- % intact radioligand in peripheral blood [3]: > 98% and > 96%
- tissue uptake at 4 h (in vivo [4]; [8]): 1.9 ± 0.1 %ID/g
- tissue uptake at 24 h (in vivo [4]; [8]): 0.8 ± 0.1 %ID/g
- tissue uptake at 4 h (in vivo [4]; blood, 10 pmol total peptide): 0.3 ± 0.01 %ID/g
- tissue uptake at 24 h (in vivo [4]; blood, 10 pmol total peptide): 0.07 %ID/g
- tissue uptake at 24 h (in vivo [4]; femur, 10 pmol total peptide): 0.6 ± 0.1 %ID/g
- tissue uptake at 4 h (in vivo [4]; heart, 10 pmol total peptide): 0.5 ± 0.05 %ID/g
- tissue uptake at 24 h (in vivo [4]; heart, 10 pmol total peptide): 0.3 ± 0.06 %ID/g
- tissue uptake at 4 h (in vivo [4]; heart, with TATE 100 nmol co-injected (in vivo SST2R blockade)): 0.7 ± 0.1 %ID/g
- tissue uptake at 24 h (in vivo [4]; intestines, 10 pmol total peptide): 0.6 ± 0.08 %ID/g
- tissue uptake at 24 h (in vivo [4]; kidneys, 10 pmol total peptide): 34.1 ± 3.9 %ID/g
- tissue uptake at 4 h (in vivo [4]; kidneys, with TATE 100 nmol co-injected (in vivo SST2R blockade)): 49.5 ± 10.5 %ID/g
- tissue uptake at 4 h (in vivo [4]; liver, 10 pmol total peptide): 16.6 ± 1.5 %ID/g
- tissue uptake at 24 h (in vivo [4]; liver, 10 pmol total peptide): 12.1 ± 2.4 %ID/g
- tissue uptake at 24 h (in vivo [4]; muscle, 10 pmol total peptide): 0.1 ± 0.03 %ID/g
- tissue uptake at 4 h (in vivo [4]; [9]): 0.5 ± 0.1 %ID/g
- tissue uptake at 24 h (in vivo [4]; [9]): 0.4 ± 0.07 %ID/g
- tissue uptake at 24 h (in vivo [4]; spleen, 10 pmol total peptide): 6 ± 1.1 %ID/g
- tissue uptake at 4 h (in vivo [4]; stomach, 10 pmol total peptide): 0.8 ± 0.04 %ID/g
- tissue uptake at 24 h (in vivo [4]; stomach, 10 pmol total peptide): 0.3 ± 0.03 %ID/g
- tissue uptake at 4 h (in vivo [4]; stomach, with TATE 100 nmol co-injected (in vivo SST2R blockade)): 0.5 ± 0.2 %ID/g
- Tumor uptake [5]: 0.8 ± 0.05 %IA/g
- tissue uptake at 4 h (in vivo [6]; HEK293-hSST3R tumor, 10 pmol total peptide): 3.7 ± 0.4 %ID/g
- tissue uptake at 4 h (in vivo [6]; blood, 10 pmol total peptide): 0.3 ± 0.02 %ID/g
- tissue uptake at 4 h (in vivo [6]; heart, 10 pmol total peptide): 0.5 ± 0.05 %ID/g
- tissue uptake at 4 h (in vivo [6]; heart, with KE108 80 nmol co-injected (in vivo SST3R blockade)): 0.1 %ID/g
- tissue uptake at 4 h (in vivo [6]; kidneys, with KE108 80 nmol co-injected (in vivo SST3R blockade)): 26.8 ± 5.4 %ID/g
- tissue uptake at 4 h (in vivo [6]; liver, 10 pmol total peptide): 16.6 ± 1.5 %ID/g
- tissue uptake at 4 h (in vivo [6]; [9]): 0.5 ± 0.04 %ID/g
- tissue uptake at 4 h (in vivo [6]; stomach, 10 pmol total peptide): 0.8 ± 0.05 %ID/g
- tissue uptake at 4 h (in vivo [6]; stomach, with KE108 80 nmol co-injected (in vivo SST3R blockade)): 0.1 ± 0.04 %ID/g
- Tumor uptake [7]: 0.3 ± 0.05 %IA/g
